Test results taken from patent EP4454706A1 (Universität Stuttgart, dated 2024).
Read-outs that look alike come from different tables or passages of the source.

What was measured:
[1] = target: T1, human EGFR (aa 1 - 1,210), on cells (human, UniProt P00533 25-1210); assay: flow cytometry, SW620 cells
T1 construct: also called EGFR wt; NIH-3T3 + EGFR wt

[2] = target: T1, human EGFR (aa 1 - 1,210), on cells; assay: flow cytometry, FaDu cells
[3] = target: T1, human EGFR (aa 1 - 1,210), on cells; assay: flow cytometry, LIM1215 cells
[4] = target: T1, human EGFR (aa 1 - 1,210), on cells; assay: flow cytometry, FaDu cells; remark: listed apart in the source
[5] = target: T1, human EGFR (aa 1 - 1,210), on cells; assay: cell-based or functional assay
CD3 on Jurkat cells = target: T2, CD3 on Jurkat cells (human, UniProt P07766 23-207); assay: flow cytometry, Jurkat cells
T2 construct: whole, on cells; also called CD3-expressing Jurkat

[6] = target: T1, human EGFR (aa 1 - 1,210), on cells; assay: flow cytometry, HCT-116 cells
[7] = target: T1, human EGFR (aa 1 - 1,210), on cells; assay: cell-based or functional assay; remark: listed apart in the source
[8] = target: T3, EGFR-moIgG2a-Fc fusion protein comprising the extracellular domain (aa 25 - 645) of human EGFR (human); assay: ELISA, coated EGFR-moIgG2a-Fc
T3 construct: also called EGFR wt

EGFR-moIgG2a-Fc Q435P = target: T4, EGFR-moIgG2a-Fc Q435P (human); assay: ELISA, coated mutant EGFR-moIgG2a-Fc
T4 construct: see m31; also called EGFR Q435P

EGFR-moIgG2a-Fc F436A = target: T5, EGFR-moIgG2a-Fc F436A (human); assay: ELISA, coated mutant EGFR-moIgG2a-Fc
T5 construct: see m31; also called EGFR F436A

EGFR-moIgG2a-Fc G434A = target: T6, EGFR-moIgG2a-Fc G434A (human); assay: ELISA, coated mutant EGFR-moIgG2a-Fc
T6 construct: also called EGFR G434A

EGFR-moIgG2a-Fc I462A = target: T7, EGFR-moIgG2a-Fc I462A (human); assay: ELISA, coated mutant EGFR-moIgG2a-Fc
T7 construct: see m31; also called EGFR I462A

[9] = target: T8, EGFR-moIgG2a-Fc F436A/I462A (human); assay: ELISA, coated mutant EGFR-moIgG2a-Fc
T8 construct: see m31; also called double mutant F436A/I462A

[10] = target: T9, EGFR-His fusion protein comprising the extracellular domain of murine EGFR (aa 25 - 647) (murine, UniProt Q01279 25-647); assay: ELISA, coated murine EGFR-His
T9 construct: Bought protein; also called mouse EGFR; Sino Biological 51091-M08H

EGFR-moIgG2a-Fc K489E = target: T10, EGFR-moIgG2a-Fc K489E (human); assay: ELISA, coated mutant EGFR
T10 construct: See m39

[11] = target: T1, human EGFR (aa 1 - 1,210), on cells; assay: flow cytometry, DiFi cells
[12] = target: T1, human EGFR (aa 1 - 1,210), on cells; assay: flow cytometry, LIM1215 cells; remark: listed apart in the source
[13] = target: T11, EGFR-moIgG2a-Fc F381A/H383A (human); assay: ELISA, coated mutant EGFR-moIgG2a-Fc
T11 construct: also called F381/H383

[14] = target: T9, EGFR-His fusion protein comprising the …; assay: ELISA, coated murine EGFR-His, 10 nM IgG
[15] = target: T1, human EGFR (aa 1 - 1,210), on cells; assay: flow cytometry, A431 cells
[16] = target: T3, EGFR-moIgG2a-Fc fusion protein …; assay: competition ELISA, coated EGFR-moIgG2a-Fc; 1 nM IgG against 200 nM Fab-His
[17] = target: T1, human EGFR (aa 1 - 1,210), on cells; assay: flow cytometry, FaDu cells; remark: listed apart in the source
EGFR-moIgG2a-Fc S484A = EGFR-moIgG2a-Fc S484A (human); assay: ELISA, coated mutant EGFR-moIgG2a-Fc
EGFR-moIgG2a-Fc K487A = EGFR-moIgG2a-Fc K487A (human); assay: ELISA, coated mutant EGFR-moIgG2a-Fc

B1: Fab-eIg YU250-H10xhuU3 (bispecific antibody)
light: QSVLTQPPSVSGAPGQRVTISCSGGSSNVGRNGVNWFQHLPEKAPKLLIYYDAFLSSGVSDRFSGSKSGTSASLAIRGLQSDDEADYYCAAWDDSLYSWVFGGGTNLTVLGQPKAAPSVTLFPPSSEELQANKATLVCLISDFYPGAVTVAWKADSSPVKAGVETTTPSKQSNNKYAASSYLSLTPEQWKSHRSYSCQVTHEGSTVEKTVAPTECS
chain 1: not shown
chain 2: not shown
chain 3: not shown
notes: also called bispecific trivalent EGFRxCD3 Fab-eIg YU250-H10
- EC50 [1]: 0.03 nM
- EC50 [2]: 0.32 nM
- EC50 [3]: 0.27 nM
- EC50 [4]: 0.76 nM
- IC50 for cytotoxicity, FaDu + PBMCs (E:T 10:1) [5]: 0.0048 nM
- IC50 for cytotoxicity, HCT-116 + PBMCs (E:T 10:1) [5]: 0.003 nM
- IC50 for cytotoxicity, SW620 + PBMCs (E:T 10:1) [5]: 0.0049 nM
- EC50 (CD3 on Jurkat cells): > 10 nM
- EC50 [6]: 0.13 nM
- IC50 for cytotoxicity, FaDu + PBMCs (E:T 10:1) [7]: 0.007 nM
- IC50 for cytotoxicity, LIM1215 + PBMCs (E:T 10:1) [7]: 0.003 nM

B2: Panitumumab (antibody, human IgG1, kappa, V domains shown)
VH: QVQLQESGPGLVKPSETLSLTCTVSGGSVSSGDYYWTWIRQSPGKGLEWIGHIYYSGNTNYNPSLKSRLTISIDTSKTQFSLKLSSVTAADTAIYYCVRDRVTGAFDIWGQGTMVTVSS
VL: DIQMTQSPSSLSASVGDRVTITCQASQDISNYLNWYQQKPGKAPKLLIYDASNLETGVPSRFSGSGSGTDFTFTISSLQPEDIATYFCQHFDHLPLAFGGGTKVEIKR
notes: also called IgG Panitumumab
- binding result [8]: binds
- binding result (EGFR-moIgG2a-Fc Q435P): binds
- binding result (EGFR-moIgG2a-Fc F436A): binds
- binding result (EGFR-moIgG2a-Fc G434A): binds
- binding result (EGFR-moIgG2a-Fc I462A): binds
- binding result [9]: binds
- binding result [10]: no binding (tested: 10 nM)
- binding result (EGFR-moIgG2a-Fc K489E): binds

B3: IgG GC1118 (antibody, V domains shown)
VH: EVQLVESGGGVVQPGGSLRLSCAASGFTFSDYDMSWIRQAPGKGLEWVSGILGGSERSYYRDSVKGRFTISRDNSRKTLYLQMNSLRAEDTAVYYCARHGSPGYTLYAWDYWGQGTTVTVSS
VL: DIVMTQTPLSLPVTPGEPASISCRSNQDLTHSNGNTYLEWYLQKPGQSPRLLIYKVSNRFSGVPDRFSGSGAGTDFTLRISRVEAEDVGVYYCMQGTHWPWTFGQGTKVDIKR
notes: also called GC118
- EC50 [11]: 1.1 nM
- EC50 [12]: 0.15 nM
- binding result (EGFR-moIgG2a-Fc Q435P): binds
- binding result [13]: no binding
- binding result (EGFR-moIgG2a-Fc F436A): binds
- binding result (EGFR-moIgG2a-Fc G434A): binds
- binding result (EGFR-moIgG2a-Fc I462A): binds
- binding result [9]: binds
- binding result [14]: binds
- EC50 [15]: 1.67 nM
- binding result [16]: binds
- EC50 [17]: 0.47 nM

B4: Matuzumab (antibody, human IgG1, kappa, V domains shown)
VH: QVQLVQSGAEVKKPGASVKVSCKASGYTFTSHWMHWVRQAPGQGLEWIGEFNPSNGRTNYNEKFKSKATMTVDTSTNTAYMELSSLRSEDTAVYYCASRDYDYDGRYFDYWGQGTLVTVSS
VL: DIQMTQSPSSLSASVGDRVTITCSASSSVTYMYWYQQKPGKAPKLLIYDTSNLASGVPSRFSGSGSGTDYTFTISSLQPEDIATYYCQQWSSHIFTFGQGTKVEIKR
notes: also called IgG Matuzumab
- EC50 [11]: 0.95 nM
- binding result [8]: binds
- EC50 [12]: 0.12 nM
- binding result (EGFR-moIgG2a-Fc Q435P): binds
- binding result (EGFR-moIgG2a-Fc F436A): binds
- binding result (EGFR-moIgG2a-Fc G434A): binds
- binding result (EGFR-moIgG2a-Fc S484A): no binding
- binding result (EGFR-moIgG2a-Fc I462A): binds
- binding result [9]: binds
- binding result (EGFR-moIgG2a-Fc K487A): no binding
- binding result [10]: no binding (tested: 10 nM)
- EC50 [15]: 1.68 nM
- EC50 [17]: 0.34 nM
